Assays:
[1] = biological target: T1, THAP1ΔQRCRR mutant (deletion of residues 168-172) (human, UniProt Q9NVV9 1-213); assay: yeast two-hybrid and in vivo interaction assay
T1 sequence: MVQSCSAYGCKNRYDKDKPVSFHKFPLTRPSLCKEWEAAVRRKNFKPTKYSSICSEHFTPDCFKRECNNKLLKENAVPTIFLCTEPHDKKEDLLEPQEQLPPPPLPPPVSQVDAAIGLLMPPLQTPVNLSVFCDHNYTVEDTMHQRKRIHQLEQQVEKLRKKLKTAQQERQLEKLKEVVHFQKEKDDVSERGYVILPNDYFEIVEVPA

[2] = biological target: T2, human THAP2, full length (human, UniProt Q9H0W7 1-228); assay: yeast two-hybrid, Par4DD bait
T2 construct: Two-hybrid fusion or 35S-labelled in vitro translation product

[3] = biological target: T3, human THAP3, full length (human, UniProt Q8WTV1 1-239); assay: yeast two-hybrid, Par4DD bait
T3 construct: Two-hybrid fusion or 35S-labelled in vitro translation product
T3 sequence: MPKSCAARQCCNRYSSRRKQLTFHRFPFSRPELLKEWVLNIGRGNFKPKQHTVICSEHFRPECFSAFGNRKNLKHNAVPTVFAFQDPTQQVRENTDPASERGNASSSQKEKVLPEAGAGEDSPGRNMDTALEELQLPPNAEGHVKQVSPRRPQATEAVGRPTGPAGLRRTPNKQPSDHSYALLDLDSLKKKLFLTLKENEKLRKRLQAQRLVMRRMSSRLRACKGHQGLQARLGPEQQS

[4] = biological target: T4, human THAP1 (THanatos-Associated-Protein-1), full length (human, UniProt Q9NVV9 1-213); assay: yeast two-hybrid, both orientations
T4 construct: these tags are not written into the chain; also called hTHAP1; THAP1 wild type
T4 sequence: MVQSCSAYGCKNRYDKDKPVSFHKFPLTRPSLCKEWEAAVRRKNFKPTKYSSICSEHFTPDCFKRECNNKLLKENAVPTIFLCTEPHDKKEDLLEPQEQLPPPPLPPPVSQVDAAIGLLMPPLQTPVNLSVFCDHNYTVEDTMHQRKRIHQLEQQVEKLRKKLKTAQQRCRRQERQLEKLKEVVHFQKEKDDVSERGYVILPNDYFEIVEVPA
Procedure: To identify potential protein partners of THAP1, screening of the two-hybrid HEVEC cDNA library was performed using as a bait the human THAP1 full length cDNA inserted into the […] two-hybrid system 3 vector pGBKT7 (Clontech). Briefly, the full-length coding region of THAP1 was amplified by PCR from HEVEC cDNA with primers 2HMR10 (5′-[…]-3′) (SEQ ID NO: 187) and 2HMR9 (5′-[…]-3′) (SEQ ID NO: 188), digested with EcoRI and BamHI, and cloned in frame downstream of the Gal4 Binding Domain (Gal4-BD) in pGBKT7 vector to generate pGBKT7-THAP1. pGBKT7-THAP1 was then cotransformed with the pGAD424-HEVEC cDNA library in yeast strain AH109 (Clontech). 1.5×10⁷ yeast transformants were screened and positive protein interactions were selected by His and Ade double auxotrophy according to manufacturer's instructions ([…] two-hybrid system 3, Clontech). The plates were incubated at 30° C. for 5 days. Plasmid DNA was extracted from these positive colonies and used to verify the specificity of the interaction by cotransformation in AH109 with pGBKT7-THAP1 or control baits pGBKT7, pGBKT7-lamin and pGBKT7-hevin. […] Positive interaction between THAP1 and Par4 was confirmed using full length Par4 bait (pGBKT-Par4) and prey (pGADT7-Par4). […]

[5] = biological target: T5, THAP1-N1 deletion mutant (amino acids 1-90) (human, UniProt Q9NVV9 1-90); assay: in vivo interaction test: GFP-THAP1 mutant and myc-Par4DD co-expressed in primary human endothelial cells, confocal immunofluorescence
T5 construct: Gal4 fusion, in vitro translation product or GFP fusion according to assay; also called zinc finger domain of THAP1
T5 sequence: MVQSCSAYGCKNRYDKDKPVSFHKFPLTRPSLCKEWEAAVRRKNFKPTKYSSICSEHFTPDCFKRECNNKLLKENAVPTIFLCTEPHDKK
From the text: To provide further evidence for a physiological interaction between THAP1 and Par4 in vivo interactions between THAP1 and PAR4 were investigated. For that purpose, confocal immunofluorescence microscopy was used to analyze the subcellular localization of epitope-tagged Par4DD in primary human endothelial cells transiently cotransfected with pEF-mycPar4DD eukaryotic expression vector and GFP or GFP-THAP1 expression vectors (pEGFP.C2 and pEGFP.C2-THAP1, respectively). To generate pEF-mycPar4DD, mycPar4DD (amino acids 250-342) was amplified by PCR using pGBKT7-Par4DD as template, with primers myc.BD7 (5′-[…]-3′) (SEQ ID NO: 195) and Par4.9 (5′-[…]-3′) (SEQ ID NO: 196), and cloned into the XbaI and NotI sites of the pEF-BOS expression vector (Mizushima and Nagata, Nucleic Acids Research, 18:5322, 1990). Primary human endothelial cells from umbilical vein (HUVEC, PromoCell, Heidelberg, Germany) were grown in complete ECGM medium (PromoCell, Heidelberg, Germany), plated on coverslips and transiently transfected in RPMI medium using GeneJammer transfection reagent according to manufacturer instructions (Stratagene, La Jolla, Calif., USA). Cells co-transfected with pEF-mycPar4DD and GFP-tagged expression constructs were allowed to grow for 24 h to 48 h on coverslips. Cells were washed twice with PBS, fixed for 15 min at room temperature in PBS containing 3.7% formaldehyde, and washed again with PBS prior to neutralization with 50 mM NH₄Cl in PBS for 5 min at room temperature. Following one more PBS wash, cells were permeabilized 5 min at room temperature in PBS containing 0.1% Triton-X100, and washed again with PBS. Permeabilized cells were then blocked with PBS-BSA (PBS with 1% bovine serum albumin) for 10′ and then incubated 2 hr at room temperature with mouse monoclonal antibody anti-myc epitope (mouse IgG1, 1/200, Clontech) diluted in PBS-BSA. Cells were then washed three times 5 min at room temperature in PBS-BSA, and incubated for 1 hr with Cy3 (red fluorescence)-conjugated goat anti-mouse (1/1000, Amersham Pharmacia Biotech) secondary antibodies, diluted in PBS-BSA. After extensive washing in PBS, samples were air dried and mounted in Mowiol. Images were collected on a Leica confocal laser scanning microscope.

T2 sequence (Q9H0W7 whole entry, the tested form may be a part): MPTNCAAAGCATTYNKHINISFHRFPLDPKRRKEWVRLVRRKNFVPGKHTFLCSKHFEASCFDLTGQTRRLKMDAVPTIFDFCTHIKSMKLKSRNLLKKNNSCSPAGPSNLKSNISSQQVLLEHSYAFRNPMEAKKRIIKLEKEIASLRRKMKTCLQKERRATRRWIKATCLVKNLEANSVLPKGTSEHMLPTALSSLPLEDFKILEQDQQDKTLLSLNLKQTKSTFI

B1: Par4 leucine zipper/death domain (Par4DD, amino acids 250-342) (other)
chain: GFPRYNRDANVSGTLVSSSTLEKKIEDLEKEVVTERQENLRLVRLMQDKEEMIGKLKEEIDLLNRDLDDIEDENEQLKQENKTLLKVVGQLTR
notes: Gal4 fusion in two-hybrid; also called myc-Par4DD
B1: no binding [1]; binds [2]; binds [3]. B1: binds [4]; no binding [5].

— patent US20060270596A1 (CENTRE NATIONAL DE LA RECHERCHE SCIENTIFIQUE CNRS, published 2006)
